Measurements from PMC9697831 (2022).
No end group written: not given here. enterokinase site = enterokinase site: N-terminal 6xHis-tag carrying an enterokinase cleavage site; factor Xa site = factor Xa site: N-terminal 6xHis-tag carrying a factor Xa cleavage site

biological target: Kv1.3 (Homo sapiens, UniProt P22001); assay: whole-cell patch clamp
Sequence (P22001 whole entry): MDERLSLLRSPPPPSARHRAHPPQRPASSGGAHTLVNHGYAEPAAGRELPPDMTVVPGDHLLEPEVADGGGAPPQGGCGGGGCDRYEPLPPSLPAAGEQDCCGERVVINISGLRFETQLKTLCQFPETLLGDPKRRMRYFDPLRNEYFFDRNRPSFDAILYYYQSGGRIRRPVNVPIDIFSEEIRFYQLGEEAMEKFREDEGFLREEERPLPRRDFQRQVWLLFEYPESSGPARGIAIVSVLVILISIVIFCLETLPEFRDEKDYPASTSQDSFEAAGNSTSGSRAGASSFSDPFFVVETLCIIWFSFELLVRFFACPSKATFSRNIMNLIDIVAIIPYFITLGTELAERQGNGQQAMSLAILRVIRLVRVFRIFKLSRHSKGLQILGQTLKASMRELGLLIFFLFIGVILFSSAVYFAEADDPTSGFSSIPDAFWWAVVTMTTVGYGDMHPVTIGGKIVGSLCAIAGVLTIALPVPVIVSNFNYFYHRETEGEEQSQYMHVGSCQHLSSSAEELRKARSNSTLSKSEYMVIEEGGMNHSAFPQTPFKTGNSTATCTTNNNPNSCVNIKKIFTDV

| Binder | Kd |
| --- | --- |
| WCSTCLDLACGASRECYDPCFKAFGRAHGKCMNNKCRCYT [Ts6 (Untag-Ts6)] | 29.1 nM |
| {6xHis tag-enterokinase site}-WCSTCLDLACGASRECYDPCFKAFGRAHGKCMNNKCRCYT (disulfide (positions not given here); ends not checked) [Ts6 (Tag-Ts6)] | 887 nM |
| {6xHis tag-factor Xa site}-AAAISCVGSPECPPKCRAQGCKNGKCMNRKCECYYC (disulfide (positions not given here); ends not checked) [Vm24 (Tag-Vm24)] | 0.0044 nM |
| QKECTGPQHCTNFCRKNKCTHGKCMNRKCKCFNCK [Anuroctoxin (Untag-AnTx)] | 0.72 nM |
| QKECTGPQHCTNFCRKNKCTHGKCMNRKCKCFNCK (N-terminal 6xHis-tag with enterokinase site) [Anuroctoxin (Tag-AnTx)] | 1.29 nM |
